PMC12547303

Assays:
[1] = biological target: T1, FLAG-tagged CNNM2 lacking the CBS-pair domain, CNNM2-ΔCBS(469–578) (mouse) (UniProt Q3TWN3)
T1 sequence: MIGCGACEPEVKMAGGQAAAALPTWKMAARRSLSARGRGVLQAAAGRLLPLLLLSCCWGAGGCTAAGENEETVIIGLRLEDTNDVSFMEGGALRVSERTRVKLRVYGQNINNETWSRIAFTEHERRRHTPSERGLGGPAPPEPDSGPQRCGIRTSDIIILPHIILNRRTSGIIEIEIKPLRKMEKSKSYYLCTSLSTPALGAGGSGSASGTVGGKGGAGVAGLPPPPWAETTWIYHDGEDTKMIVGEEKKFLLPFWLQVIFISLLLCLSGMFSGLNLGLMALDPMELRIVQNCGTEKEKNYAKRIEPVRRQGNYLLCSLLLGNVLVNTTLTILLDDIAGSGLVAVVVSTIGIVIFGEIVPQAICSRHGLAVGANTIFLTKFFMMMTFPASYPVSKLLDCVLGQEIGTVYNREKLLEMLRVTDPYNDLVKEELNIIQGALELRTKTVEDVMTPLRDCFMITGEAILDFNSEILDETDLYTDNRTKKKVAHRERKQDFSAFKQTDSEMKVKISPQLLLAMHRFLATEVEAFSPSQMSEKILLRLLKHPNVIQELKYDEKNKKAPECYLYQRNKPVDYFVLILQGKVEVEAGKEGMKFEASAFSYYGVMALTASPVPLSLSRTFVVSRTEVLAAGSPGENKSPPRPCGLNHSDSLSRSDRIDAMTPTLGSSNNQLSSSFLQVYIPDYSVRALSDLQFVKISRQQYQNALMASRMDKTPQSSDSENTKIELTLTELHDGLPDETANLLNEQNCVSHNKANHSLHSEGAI

CNNM2-S269P (mouse) = biological target: T2, CNNM2-S269P (mouse) (UniProt Q3TWN3)
T2 sequence: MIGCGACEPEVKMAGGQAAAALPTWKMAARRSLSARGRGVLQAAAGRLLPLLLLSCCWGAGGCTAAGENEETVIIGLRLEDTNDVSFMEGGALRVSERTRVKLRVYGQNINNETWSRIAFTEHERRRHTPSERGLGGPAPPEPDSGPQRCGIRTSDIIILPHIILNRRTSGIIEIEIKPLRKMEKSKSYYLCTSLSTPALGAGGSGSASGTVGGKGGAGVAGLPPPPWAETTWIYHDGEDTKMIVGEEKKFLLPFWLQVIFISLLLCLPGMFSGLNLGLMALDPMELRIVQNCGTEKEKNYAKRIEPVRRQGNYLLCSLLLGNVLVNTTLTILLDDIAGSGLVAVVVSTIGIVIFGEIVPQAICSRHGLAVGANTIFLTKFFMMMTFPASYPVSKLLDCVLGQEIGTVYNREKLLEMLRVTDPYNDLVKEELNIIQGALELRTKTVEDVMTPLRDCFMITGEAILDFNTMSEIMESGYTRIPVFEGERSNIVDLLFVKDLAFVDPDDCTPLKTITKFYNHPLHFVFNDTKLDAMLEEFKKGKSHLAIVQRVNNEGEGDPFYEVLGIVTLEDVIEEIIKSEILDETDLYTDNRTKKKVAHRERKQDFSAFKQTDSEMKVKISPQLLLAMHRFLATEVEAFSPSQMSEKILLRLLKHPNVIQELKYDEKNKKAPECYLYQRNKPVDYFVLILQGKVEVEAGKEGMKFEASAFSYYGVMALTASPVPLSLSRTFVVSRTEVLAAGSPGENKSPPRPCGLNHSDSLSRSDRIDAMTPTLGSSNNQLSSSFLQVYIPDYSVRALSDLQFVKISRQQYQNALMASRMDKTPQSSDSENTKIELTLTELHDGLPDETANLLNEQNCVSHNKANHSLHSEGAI

[2] = biological target: T3, CNNM2-H523K/S269P (mouse) (UniProt Q3TWN3)
T3 sequence: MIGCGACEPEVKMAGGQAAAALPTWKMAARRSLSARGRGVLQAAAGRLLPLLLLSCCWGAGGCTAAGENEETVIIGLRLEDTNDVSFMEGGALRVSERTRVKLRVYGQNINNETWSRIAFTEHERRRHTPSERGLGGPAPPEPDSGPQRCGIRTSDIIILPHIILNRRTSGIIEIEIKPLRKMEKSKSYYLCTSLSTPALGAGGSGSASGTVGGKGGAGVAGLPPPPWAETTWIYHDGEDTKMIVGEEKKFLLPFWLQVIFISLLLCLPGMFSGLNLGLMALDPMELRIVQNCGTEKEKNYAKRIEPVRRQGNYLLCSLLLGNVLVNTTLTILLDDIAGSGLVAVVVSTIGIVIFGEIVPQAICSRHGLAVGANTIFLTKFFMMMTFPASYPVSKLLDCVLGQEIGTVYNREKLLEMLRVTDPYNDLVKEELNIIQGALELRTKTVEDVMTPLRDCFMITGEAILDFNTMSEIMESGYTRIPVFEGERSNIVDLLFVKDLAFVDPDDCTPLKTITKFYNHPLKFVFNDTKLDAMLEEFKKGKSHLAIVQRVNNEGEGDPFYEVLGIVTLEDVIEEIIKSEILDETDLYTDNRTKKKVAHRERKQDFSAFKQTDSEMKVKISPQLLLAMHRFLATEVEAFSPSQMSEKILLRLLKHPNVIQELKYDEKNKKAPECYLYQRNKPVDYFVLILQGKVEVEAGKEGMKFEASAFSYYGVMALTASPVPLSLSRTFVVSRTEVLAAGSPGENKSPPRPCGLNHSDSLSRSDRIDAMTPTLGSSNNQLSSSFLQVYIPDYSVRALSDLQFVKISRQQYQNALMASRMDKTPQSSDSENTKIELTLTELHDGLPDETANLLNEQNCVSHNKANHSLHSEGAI

outward TRPM7 current density at +100 mV in 293-M7-ΔCNNM3/4 cells with CNNM2-ΔCBS, without vs with ARL15 (the value is with ARL15); not different [1]: 330
outward TRPM7 current density at +100 mV in 293-M7-ΔCNNM3/4 cells with CNNM2-S269P, without vs with ARL15 (the value is with ARL15); marked reduction (CNNM2-S269P (mouse)): 123
outward TRPM7 current density at +100 mV in 293-M7-ΔCNNM3/4 cells with CNNM2-H523K/S269P, without vs with ARL15 (the value is with ARL15); not different [2]: 294
B1: Myc-DDK tagged ARL15 (natural protein)
chain: MSDLRITEAFLYMDYLCFRALCCKGPPPARPEYDLVCIGLTGSGKTSLLSKLCSESPDNVVSTTGFSIKAVPFQNAILNVKELGGADNIRKYWSRYYQGSQGVIFVLDSASSEDDLEAARNELHSALQHPQLCTLPFLILANHQDKPAARSVQEIKKYFELEPLARGKRWILQPCSLDDMDALKDSFSQLINLLEEKDHEAVRM
